Patent publication US20130171133A1 (IMPERIAL INNOVATIONS, published 2013)

Assays:
[1] = biological target: T1, FGFR1 (full length, from cell lysates; endogenous or SK-OV-3 cells transiently transfected with FGFR1 cDNA) (human, UniProt P11362 22-822); assay: co-IP with OPCML Ab, immunoblot with anti-FGFR1 ECD Ab, FIG. 2A(ii)
T1 construct: whole, on cells; Tested from detergent cell lysates (co-IP, GST pull-down); also called fibroblast growth factor receptor 1
Experimental: Cell layers were washed in PBS and incubated for 30 minutes in lysis buffer (1% TritonX-100, 10 mM Tris pH8.0, 150 mM NaCl, 2.5 mM MgCl₂, 5 mM EGTA, 1 mM Na₃VO₄, 50 mM NaF and […] (Roche). Cell Lysates were then cleared by centrifugation at 13,000 rpm for 20 minutes at 4° C. and aliquots containing equal amounts of protein were incubated with the appropriate antibody before addition of secondary antibody conjugated to sepharose resin. Beads were then washed 3× with lysis buffer and eluted by heating for 5 minutes in […] of SDS sample buffer.

[2] = biological target: HER2 (full length, from SK-OV-3 derived cell lysates) (human, UniProt P04626 23-1255); assay: cell-based or functional assay
[3] = biological target: T2, EphA2 (from cell lysates) (human, UniProt P29317 24-976); assay: co-IP and reciprocal co-IP, FIG. 17A
T2 construct: whole, on cells; Tested by co-immunoprecipitation from cell lysates

T1 sequence (P11362 22-822): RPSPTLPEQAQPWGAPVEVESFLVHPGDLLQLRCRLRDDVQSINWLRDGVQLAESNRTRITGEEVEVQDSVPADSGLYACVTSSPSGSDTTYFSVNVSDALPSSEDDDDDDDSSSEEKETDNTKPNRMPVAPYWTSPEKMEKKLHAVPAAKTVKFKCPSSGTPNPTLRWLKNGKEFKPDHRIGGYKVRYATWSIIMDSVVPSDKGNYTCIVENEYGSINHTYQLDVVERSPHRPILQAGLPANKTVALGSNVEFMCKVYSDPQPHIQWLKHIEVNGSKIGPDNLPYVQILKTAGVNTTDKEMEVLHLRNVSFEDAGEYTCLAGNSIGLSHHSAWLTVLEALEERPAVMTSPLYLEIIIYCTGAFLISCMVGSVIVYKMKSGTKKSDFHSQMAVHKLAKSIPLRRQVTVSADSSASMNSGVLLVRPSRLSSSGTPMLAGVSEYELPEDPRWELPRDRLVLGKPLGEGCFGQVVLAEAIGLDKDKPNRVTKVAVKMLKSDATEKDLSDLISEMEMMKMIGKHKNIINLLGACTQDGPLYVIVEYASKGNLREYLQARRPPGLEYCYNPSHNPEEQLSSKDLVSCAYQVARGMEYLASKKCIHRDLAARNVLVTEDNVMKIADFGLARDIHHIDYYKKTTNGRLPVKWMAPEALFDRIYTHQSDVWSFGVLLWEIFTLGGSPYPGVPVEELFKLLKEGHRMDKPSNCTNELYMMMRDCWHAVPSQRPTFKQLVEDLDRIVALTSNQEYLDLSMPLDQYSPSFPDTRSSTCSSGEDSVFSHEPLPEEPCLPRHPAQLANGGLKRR

B1: OPCML (opioid binding protein cell adhesion molecule), human, expressed in cells (stably transfected SK-OV-3 lines BKS2.1 and SKOBS-3.5) (other)
chain: GVPVRSGDATFPKAMDNVTVRQGESATLRCTIDDRVTRVAWLNRSTILYAGNDKWSIDPRVIILVNTPTQYSIMIQNVDVYDEGPYTCSVQTDNHPKTSRVHLIVQVPPQIMNISSDITVNEGSSVTLLCLAIGRPEPTVTWRHLSVKEGQGFVSEDEYLEISDIKRDQSGEYECSALNDVAAPDVRKVKITVNYPPYISKAKNTGVSVGQKGILSCEASAVPMAEFQWFKEETRLATGLDGMRIENKGRMSTLTFFNVSEKDYGNYTCVATNKLGNTNASITLYGPGAVIDGVN
modifications: GPI anchor at N322; N-linked glycosylation
notes: Full OPCML cDNA in pcDNA3.1zeo, expressed in SK-OV-3 derived lines; immunoprecipitated from Triton X-100 cell lysates; also called OBCAM; OPCML polypeptide
binding result [1]: binds
fold decrease in effective concentration of lapatinib required to abolish the EGF induced phospho-ERK signal, BKS2.1 against SKOBS-V1.2 [2]: 10 fold
binding result [3]: binds
